Source: US5928931A, “Isolation, purification and cloning of retinol dehydratase” (Cornell Research Foundation, Inc., priority 1997, dated 1999)

B1: EGF: epidermal growth factor, purchased (protein, UniProt P01133 23-1207, looked up)
Pro-epidermal growth factor: PQHWSCPEGTLAGNGNSTCVGPAPFLIFSHGNSIFRIDTEGTNYEQLVVDAGVSVIMDFHYNEKRIYWVDLERQLLQRVFLNGSRQERVCNIEKNVSGMAINWINEEVIWSNQQEGIITVTDMKGNNSHILLSALKYPANVAVDPVERFIFWSSEVAGSLYRADLDGVGVKALLETSEKITAVSLDVLDKRLFWIQYNREGSNSLICSCDYDGGSVHISKHPTQHNLFAMSLFGDRIFYSTWKMKTIWIANKHTGKDMVRINLHSSFVPLGELKVVHPLAQPKAEDDTWEPEQKLCKLRKGNCSSTVCGQDLQSHLCMCAEGYALSRDRKYCEDVNECAFWNHGCTLGCKNTPGSYYCTCPVGFVLLPDGKRCHQLVSCPRNVSECSHDCVLTSEGPLCFCPEGSVLERDGKTCSGCSSPDNGGCSQLCVPLSPVSWECDCFPGYDLQLDEKSCAASGPQPFLLFANSQDIRHMHFDGTDYGTLLSQQMGMVYALDHDPVENKIYFAHTALKWIERANMDGSQRERLIEEGVDVPEGLAVDWIGRRFYWTDRGKSLIGRSDLNGKRSKIITKENISQPRGIAVHPMAKRLFWTDTGINPRIESSSLQGLGRLVIASSDLIWPSGITIDFLTDKLYWCDAKQSVIEMANLDGSKRRRLTQNDVGHPFAVAVFEDYVWFSDWAMPSVMRVNKRTGKDRVRLQGSMLKPSSLVVVHPLAKPGADPCLYQNGGCEHICKKRLGTAWCSCREGFMKASDGKTCLALDGHQLLAGGEVDLKNQVTPLDILSKTRVSEDNITESQHMLVAEIMVSDQDDCAPVGCSMYARCISEGEDATCQCLKGFAGDGKLCSDIDECEMGVPVCPPASSKCINTEGGYVCRCSEGYQGDGIHCLDIDECQLGEHSCGENASCTNTEGGYTCMCAGRLSEPGLICPDSTPPPHLREDDHHYSVRNSDSECPLSHDGYCLHDGVCMYIEALDKYACNCVVGYIGERCQYRDLKWWELRHAGHGQQQKVIVVAVCVVVLVMLLLLSLWGAHYYRTQKLLSKNPKNPYEESSRDVRSRRPADTEDGMSSCPQPWFVVIKEHQDLKNGGQPVAGEDGQAADGSMQPTSWRQEPQLCGMGTEQGCWIPVSSDKGSCPQVMERSFHMPSYGTQTLEGGVEKPHSLLSANPLWQQRALDPPHQMELTQ
modifications: Pro-epidermal growth factor
notes: epidermal growth factor, purchased
B2: Recombinant retinol dehydratase: 352 amino acid, 41.5 kDa enzyme of Sf-21 cells, expressed in bacteria with HisTag, SEQ. ID. No. 2 (protein)
chain: MEKQQDLPFPYEFRELNPEDKLVKANLGAFPTTYVKLGPKGYMVYRPYLKDAANIYNMPLRPTDVFVASYQRSGTTMTQELVWLIENDLNFEAAKTYMSLRYIYLDGFMIYDPEKQEEYNDILPNPENLDMERYLGLLEYFSRPGSSLLAAVPPTEKRFVKTHLPLSLMPPNMLDTVKMVYLARDPRDVAVSSFHHARLLYLLNKQSNFKDFWEMFHRGLYTLTPYFEHVKEAWAKRHDPNMLFLFYEDYLKDLPGCIARIADFLGKKLSEEQIQRLCEHLNFEKFKNNGAVNMEDYREIGILADGEHFIRKGKAGCWRDYFDEEMTKQAEKWIKDNLKDTDLRYPNMEL
modifications: His tag

Assays:
NIH 3T3 cells = test: Activation of resting serum-starved NIH 3T3 cells ([3H]thymidine incorporation); assay type: cell-based
Description: FIGS. 6A and 6B show the activation of resting NIH 3T3 cells. In FIG. 6(a), one to four day serum-starved cells activated by serum, retinol, 14-HRR, and the peptide growth factors epidermal growth factor ("EGF") and platelet derived growth factor ("PDGF") are shown. […] NIH 3T3 cells were grown to confluence in Dulbecco's minimal essential medium ("DMEM") containing 10% fetal calf serum in 96-well microliter plates. All media were supplemented with 2 mM glutamine and 100 U/ml of penicillin/streptomycin. Cells were washed once with phosphate-buffered saline solution and incubated for one to four days in 200 μl/well of DMEM media/0.1% fetal calf serum ("starvation media"). On the indicated day, starvation media was replaced with 200 μl/well of insulin, transferrin, linoleic acid, bovine serum albumin ("ITLB") media, with or without fetal calf serum, retinoids, or peptide growth factors at the indicated concentrations. ITLB media is RPMI media (Gibco BRL, Grand Island, N.Y.) containing […] bovine serum albumin (1.2 mg/ml), linoleic acid (10^-6 M), bovine insulin (5 μg/ml), and transferrin (5 μg/ml). [^3 H]thymidine (1.2 μCi per well) was added at the beginning of the experiment, and the thymidine incorporation was determined after 24 h. […]
Cells starved for 4 days in DMEM/0.1% fetal calf serum were activated with 5% fetal calf serum, 2 μM retinol, or 2 μM 14-HRR, and the cumulative thymidine incorporation was determined at the indicated time points. Δcpm corresponds to the increase in [^3 H]thymidine incorporation in the two hour period before the time point shown. […]
Cells starved for 4 days in DMEM/0.1% fetal calf serum were activated with 5% fetal calf serum, 2 μM retinol, or 2 μM 14-HRR. […] The cumulative [^3 H]thymidine incorporation was determined after 24 hours. […]
Confluent NIH 3T3 cells were starved for 1 to 4 days in medium containing 0.1% serum. […] Activation was quantitated by measuring the [^3 H] thymidine incorporated into newly synthesized DNA during the subsequent 24 hours (FIG. 6A). […]

retinol dehydratase [1] = biological target: T1, retinol dehydratase (Spodoptera frugiperda, UniProt Q26490); test: Retinol dehydratase assay ([3H]-retinol to [3H]-AR, HPLC radiomatic detection); kinetic studies; assay type: biochemical; settings: bacterially expressed recombinant enzyme
T1 sequence (Q26490 1-351): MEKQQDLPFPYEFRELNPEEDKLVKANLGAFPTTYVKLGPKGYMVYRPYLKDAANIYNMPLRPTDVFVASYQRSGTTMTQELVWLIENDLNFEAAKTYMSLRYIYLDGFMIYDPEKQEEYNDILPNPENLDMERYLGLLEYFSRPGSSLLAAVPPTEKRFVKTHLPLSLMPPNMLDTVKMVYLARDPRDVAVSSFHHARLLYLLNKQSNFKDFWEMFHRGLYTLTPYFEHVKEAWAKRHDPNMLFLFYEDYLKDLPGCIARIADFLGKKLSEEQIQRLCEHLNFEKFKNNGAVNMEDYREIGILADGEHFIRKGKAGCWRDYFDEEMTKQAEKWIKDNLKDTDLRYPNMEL
Description: 20-50 μl aliquots of supernatant/column fractions were incubated with 1 μCi of [^3 H]-retinol and 20 μl of high speed supernatant from sonicated Sf-9 cells in 200 μl assay buffer (20 mM Tris.Cl pH 7.5, 150 mM NaCl, I mM MgCI2) for 15-60 minutes at 24° C. […] Samples were delipidated and [^3 H]-AR production quantified by a liquid scintillation radiomatic detector in series with HPLC gradient elution (20 mM Tris pH 7.4/methanol/chloroform) from a C-18 Reverse Phase 201TP54 column (Vydac, Separations Group, Hesperia, Calif.) as described by McClean et al., Clin. Chem., 28:693-96 (1982) and Derguini et al., Angew. Che. Int. Ed. Engl., 33:1839-41 (1994), which are hereby incorporated by reference.
Kinetic studies were performed with native retinol dehydratase (0.1 μg/assay) and ^3 H-retinol in the presence of constant substrate carrier protein concentrations, either delipidated BSA or recombinant cellular retinol binding protein ("CRBP"). The initial rate of AR synthesis at different substrate concentrations was determined by radiomatic detection of ^3 H-AR after HPLC separation.
Carrier protein for retinol (delipidated bovine serum albumin or recombinant human CRBP) was added to reduce nonspecific binding and micelle formation.

retinol dehydratase [2] = biological target: T1, retinol dehydratase; test: Fluorimetric titration of recombinant retinol dehydratase with retinol (direct binding, no cofactor); settings: recombinant enzyme; for number of (high affinity) binding sites per molecule: retinol titration
Description: Binding was monitored by following the fluorescence enhancement of retinol (excitation--330 nm; emission--480 nm, open circles). The fluorescence contribution of free retinol was determined by titration with retinol in the absence of protein (open squares), analyzed by linear regression analysis (dashed line) and subtracted from the titration data to give the corrected titration binding curve (closed circles). The data were fitted (solid line) using an equation derived from simple binding theory.
Retinol is an efficient fluorophore and its interactions with proteins are often accompanied by a marked increase in its fluorescence. This phenomenon reflects movement of retinol from the aqueous solution to a less polar and more restrictive environment within a protein binding site, and has been extensively used to monitor the binding of retinol to binding proteins, as described by Cogan et al., Eur. J. Biochem., 65:71-75 (1976); Ong et al., J. Biol Chem., 253:828-32 (1978); and Noy et al., Biochemistry, 30:6380-86 (1991), which are hereby incorporated by reference.
Recombinant retinol dehydratase (lμM) was titrated with retinol from a concentrated solution in ethanol (final ethanol concentration <2.0%). Binding was monitored by following the fluorescence enhancement of retinol (excitation--330 nm; emission--480 nm, open circles). The fluorescence contribution of free retinol was determined by titration with retinol in the absence of protein (FIG. 5B, open squares), analysed by linear regression analysis (FIG. 5B, dashed line) and subtracted from the titration data to give the corrected titration binding curve (FIG. 5B, closed circles). The data were fitted (FIG. 5B, solid line) using an equation derived from simple binding theory as described in Norris et al., Biochim Bioshys Acta, 1209:10-8 (1994), which is hereby incorporated by reference, to yield the number of binding sites (8%) and the equilibrium dissociation constant (Kd =9 nM).
The derived Kd should thus be considered an upper limit for the actual value. Nevertheless, it agreed with the Km, confirming retinol dehydratase has a high affinity binding site for free retinol.

Molecule	activation of growth arrested cells (thymidine incorporation over 24 hours) (NIH 3T3 cells; cells deprived of serum for 3 or 4 days)	entry of treated cells into the S phase (NIH 3T3 cells; data not shown)	activation of resting cells (NIH 3T3 cells; ≤500 ng/ml)	Vmax as compared to the native enzyme purified from Sf-21 (retinol dehydratase [1]) [%]	range of binding sites (retinol dehydratase [2]; n=3)	number of (high affinity) binding sites per molecule (retinol dehydratase [2]) [%]	number of (high affinity) binding sites per molecule (retinol dehydratase [2]; listed as recombinant enzyme) [%]	binding sites (retinol dehydratase [2]; titration curves, n=3)
B1	had no effect	did not enter the S phase	unable to activate					
B2				10	0.06-0.08	8	7	0.07
